# B1: Cryptochrome-2 (Arabidopsis thaliana (Mouse-ear cress)), Q96524 (parent)
# chain: MKMDKKTIVWFRRDLRIEDNPALAAAAHEGSVFPVFIWCPEEEGQFYPGRASRWWMKQSLAHLSQSLKALGSDLTLIKTHNTISAILDCIRVTGATKVVFNHLYDPVSLVRDHTVKEKLVERGISVQSYNGDLLYEPWEIYCEKGKPFTSFNSYWKKCLDMSIESVMLPPPWRLMPITAAAEAIWACSIEELGLENEAEKPSNALLTRAWSPGWSNADKLLNEFIEKQLIDYAKNSKKVVGNSTSLLSPYLHFGEISVRHVFQCARMKQIIWARDKNSEGEESADLFLRGIGLREYSRYICFNFPFTHEQSLLSHLRFFPWDADVDKFKAWRQGRTGYPLVDAGMRELWATGWMHNRIRVIVSSFAVKFLLLPWKWGMKYFWDTLLDADLECDILGWQYISGSIPDGHELDRLDNPALQGAKYDPEGEYIRQWLPELARLPTEWIHHPWDAPLTVLKASGVELGTNYAKPIVDIDTARELLAKAISRTREAQIMIGAAPDEIVADSFEALGANTIKEPGLCPSVSSNDQQVPSAVRYNGSKRVKPEEEEERDMKKSRGFDERELFSTAESSSSSSVFFVSQSCSLASEGKNLEGIQDSSDQITTSLGKNGCK
# partner: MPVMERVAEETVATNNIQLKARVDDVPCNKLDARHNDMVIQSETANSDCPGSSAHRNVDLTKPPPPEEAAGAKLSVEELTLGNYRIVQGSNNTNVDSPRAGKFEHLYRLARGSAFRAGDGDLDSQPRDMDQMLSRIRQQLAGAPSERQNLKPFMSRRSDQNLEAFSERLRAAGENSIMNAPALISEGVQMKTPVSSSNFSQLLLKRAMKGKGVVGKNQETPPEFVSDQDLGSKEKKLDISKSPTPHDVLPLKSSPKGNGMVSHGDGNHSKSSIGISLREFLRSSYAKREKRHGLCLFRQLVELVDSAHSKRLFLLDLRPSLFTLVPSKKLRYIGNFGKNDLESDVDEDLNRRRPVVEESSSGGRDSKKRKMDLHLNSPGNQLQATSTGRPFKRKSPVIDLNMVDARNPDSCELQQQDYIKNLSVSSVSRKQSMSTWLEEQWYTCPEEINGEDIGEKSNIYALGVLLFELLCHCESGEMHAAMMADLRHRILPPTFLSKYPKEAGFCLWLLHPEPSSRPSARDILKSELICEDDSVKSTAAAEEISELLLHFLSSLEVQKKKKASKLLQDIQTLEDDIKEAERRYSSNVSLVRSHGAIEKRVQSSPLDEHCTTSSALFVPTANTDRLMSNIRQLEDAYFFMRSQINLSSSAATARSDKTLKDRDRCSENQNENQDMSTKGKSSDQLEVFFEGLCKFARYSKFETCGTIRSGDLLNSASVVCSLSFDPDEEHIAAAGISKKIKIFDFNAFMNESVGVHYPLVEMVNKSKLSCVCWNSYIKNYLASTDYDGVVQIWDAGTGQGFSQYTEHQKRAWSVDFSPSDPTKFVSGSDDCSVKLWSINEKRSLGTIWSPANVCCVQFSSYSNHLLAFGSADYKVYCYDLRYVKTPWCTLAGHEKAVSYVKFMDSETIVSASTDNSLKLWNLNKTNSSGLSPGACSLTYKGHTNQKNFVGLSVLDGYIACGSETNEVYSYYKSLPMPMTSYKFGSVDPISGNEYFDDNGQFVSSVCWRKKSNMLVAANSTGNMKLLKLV
# B2: Cryptochrome-2 (Arabidopsis thaliana (Mouse-ear cress)), Q96524 (parent)
# chain: B1 chain
# partner: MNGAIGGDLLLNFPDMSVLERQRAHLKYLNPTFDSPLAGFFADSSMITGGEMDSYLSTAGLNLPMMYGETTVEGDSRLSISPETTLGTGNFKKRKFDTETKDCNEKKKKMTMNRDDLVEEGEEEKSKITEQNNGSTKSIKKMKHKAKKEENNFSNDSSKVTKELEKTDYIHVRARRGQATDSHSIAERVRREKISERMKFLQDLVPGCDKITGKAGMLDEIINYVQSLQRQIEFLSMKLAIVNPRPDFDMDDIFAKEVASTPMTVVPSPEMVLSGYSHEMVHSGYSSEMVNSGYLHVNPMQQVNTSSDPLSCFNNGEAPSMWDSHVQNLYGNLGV
# Variants of: B1
# Settings: with spa1_arath SPA1, Q9SYX2
row,Variant,effect of a mutation on the interaction
1,W374A,increasing interaction strength

# Variants of: B2
# Settings: with bh063_arath BHLH63, Q8GY61
row,Variant,effect of a mutation on the interaction
1,W374A,increasing interaction strength
2,D387A,disrupting interaction strength
